A protein production outcome set (Wang et al. 2014)

Assay: label from the status in PepcDB records

Sequence | protein production
MYEFNLVLLLLQQMCVFLVIAWLMSKTRLFIPLMQVTVRLPHKLLCYVTFSIFCIMGTYFGLHIEDSIANTRAIGAVMSGLLGGPVVGGLVGLTGGLHRYSMGGMTALSCMISTIVEGLLGGLVHSVLIRRGRPDKVFSPLTAGAITCVAELVQMLIILLIARPFDDALHLVSNIAAPMMVTNTVGAALFMRILLDKRAMFEKYTSAFSATALKVAASTEGILRQGFNEVNSMKVAQVLYQELDIGAVAITDREKLLAFTGIGDDHHLPGKPISSGYTLKAIETGEVVYADGNEVPYRCSLHPQCKLGSTLVIPLRGENQRVMGTIKLYEAKNRLFSSINRTLGEGIAQLLSAQILAGQYERQKALLTQSEIKLLHAQVNPHFLFNALNTIKAVIRRDSEQASQLVQYLSTFFRKNLKRPSEIVTLADEIEHVNAYLQIEKARFQSRLQVQLDVPSTLSRQKLPAFTLQPIVENAIKHGTSQLLDTGNVAIRARREGQHLMLDIEDNAGLYQPSAGSSGLGMSLVDKRLREHFGDDYGISVACEPDCFTRITLRLPLEEDA | failed
MYFDSHLHSEGLGFSELVKLKENGIKEVCSLAFFPVKPKYPQTMIDVFRKLTEFEPLRCEAAGVKMHPAVGIHPRCIPPDYEFVLGYLEEGEWVAFGEIGLELVTDEEIEVLKSQLELAKRMDVPCIIHTPRGNKLKATRKTLEILESLDFPADLAVIDHVNFETLDMVLETEYWIGLTVQPGKLSAEDAARIVAEHGPERFMLNSDAGYRDVEITTVAEAAVKIEEAVGREEMEKVARENARKFLRVLELEHHHHHH | failed
MYFEIYKDAKGEYRWRLKAANHEIIAQGEGYTSKQNCQHAVDLLKSTTAATPVKEVLEHHHHHH | not failed
MYFLKKIVNLFSSKIESEDNNVKKDDLTQPRKQSPEARKRRNRRIIFWLIILLIIGTIIGVIIYFSVRKEYDNVIVKSAQTEVVNNKKVLYLNTIRPNSTQITRYTIDEDQLLTARVNILNNTNFQIISNASSLGLSRISFNIVREGVEKFKLGETNIYAPISGNTNNQWNWLTSIITQNAGIPSSGFNPQVIISPLISIIFFIIFLYIILRVSKAQSDSLLGTNKANAKLTKSGVRFSDVAGIAEVKEELIEIVDFLKEPKKYVAAGARIPKGVMLYGPPGTGKTLIAKAVAGEANVPFFQTTGSSFEDTFVGVGARRVRELFEKARKSAPAIIFIDEIDSVAKKRGNSLTAVQDQTINQLLSELDGFDTSSGVIVMAATNRLDTLDDAILRPGRFDRQISVNLPDILEREQILRIHSRNKNLSAKVSLEDIARRTAGFSGAQLENVLNEAALLSVRDKATSIHMNHLDEAIDRVIAGPSRPNKVISEREREQVSYHEAGHALIGLYSPGADVVQKITIVARGRAAGYTLQTPERNENILQNKTELISRVRTALGGRAAEELIYGPNEITTGAANDFYKITNIVRAMVASFGMTDVGLTQYIATEGVDNPYRNSYSEQTALAIDIEIEKIIQREYKIVKEMINEHREELELIVQTLLELETILKPQIDYIHQYKQLPPEVIANKNKREASQKQANSSVEEAKVVDDEESIKDKEKDQKSN | failed
MYGGAGLYKFDKLSDWMVYLDRLSKDKPVEEGWTATVFLCIRQSDKRMIGICNVRHHLNSLGLLNVSGHIGYSIRPDERKKGYAKVQLRLALLEAKKLGIDKVLVTCADWNIGSERTILANGGVYEDSRLDESTGNMMKRYWINVTERNSI | failed
MYHGMNPSNGDGFLEQQQQQQQPQSPQRLLAVILWFQLALCFGPAQLTGGFDDLQVCADPGIPENGFRTPSGGVFFEGSVARFHCQDGFKLKGATKRLCLKHFNGTLGWIPSDNSICVQEDCRIPQIEDAEIHNKTYRHGEKLIITCHEGFKIRYPDLHNMVSLCRDDGTWNNLPICQGCLRPLASSNGYVNISELQTSFPVGTVISYRCFPGFKLDGSAYLECLQNLIWSSSPPRCLALEAQVCPLPPMVSHGDFVCHPRPCERYNHGTVVEFYCDPGYSLTSDYKYITCQYGEWFPSYQVYCIKSEQTWPSTHETLLTTWKIVAFTATSVLLVLLLVILARMFQTKFKAHFPPRGPPRSSSSDPDFVVVDGVPVMLPSYDEAVSGGLSALGPGYMASVGQGCPLPVDDQSPPAYPGSGDTDTGPGESETCDSVSGSSELLQSLYSPPRCQESTHPASDNPDIIASTAEEVASTSPGIDIADEIPLMEEDP | failed
MYIKKIVIGLLFVTLVGCSSSPDTEETKEKILIKTNNYSDLIIFYKNQLKVSEDPYTREKLAQAYLDSGDPDSALFAIQYLNEDDDSRSISSFLIEANAQLECGMLEPALDTVNRVYKLNEDNPEIENLLGVIYASKRDLDKSRHYFNLARKHLYSDITIKNNLAILNIIEGKYDQAVKLLLPIYMSNKNDALVQANLMLAMAKAGDLEFMEKVLSPQFSKQEIERRYSILKNTESHRDDTNLFGAD | failed
MYINHAAEMLLCNSSVVVRCRATRGVSESLARPGGVTMHKRLTEETHHSAGSPEQPEIAGLHRELAEARQALETLYAALDNVDAGLLILNEELRAVYSNPVLHVMFRANSAEEIRQNRPLYAEMLAASAQAVAVNLEDYVSRRLAWVQSGDPKPMDLAMTDGTALRCHLAVLPGGGRMLIYSDVTDIVRNAEELERLATTDGMTGVYNRRHFLTLADREWSRARRYERPMSFLMIDIDYFKAINDGFGHQVGDEMIVHLARLARDCKRDCDVLARLGGEEFALLLPETDLAQAEVVAERLRREVAGNALVVASHAIPATVSIGVATALPGMKDVSDLMKAADQALYDAKHAGRNRVICRACHDPAPTLVPALTPRCEAATMR | failed
MYIPKYFKVTNAEEIWNFVQENSFGTVVTTEQGKPIATHLPLGFNKKDDHYYITGHFAYGNPQWRTFEACEDVLVMFQGPHAYISSSWYSRENVPTWNYQAVHMYGKASMLEKDELAEELTIMLEQKTPTQAFSVLWDKLSPKLLESELKGIVGFKIKVEDIQAAYKLSQN | failed
MYIVIAGGGEMGGELARALEKTHDVVVIDRNPQARERFASWDVKVVVGGATDPDTLREAGVDRADLFVASTDSDEINLLASLLAKGLGAKEAFCFVGKGGYVEVLTDPRTAEILGTRIDRVLWPQRAMAREIVEVILVPWAVDTEVLAGGRLRFVEYRVKEGGEYVHRLLSGEKWPEGVLLAGVVREGTFLSFAHPEFPELILEPGDKLLFVATQKAFSELAAYFTEGPGVRRVMVIGGGNVGFMVAQGLLKRRVEVVIVERNAERCQWLSEELPGALVIQGDGTDIELLEAEGMAEADAVVAVTDHDEKNLLASLLAKQMGVRKVITRVSRSETRRLFEQVGIDLALTPRQAAVREVLDWIGPENVEHIATLEESIEVLEVLVSEGAAPKALRDLVRPDAVPVALERDHRIFLYEEGLGLLPGDRLYLVAAREVADEVLAPFFPE | failed
MYIVNSNKSRGSSVERYIVSRLRDKGFAVIRAPASGSKRKDHVPDIIALKSGVIILIEVKSRKNGQKIYIEKEQAEGIREFAKRSGGELFLGVKLPKMLRFIKFDMLRQTEGGNYAIDLETVEKGMELEDLVRYVESKISRTLDSFL | not failed
MYIVNSYTLAIIFCFITMICWGSWGNTQKLASKNWRYELYYWDYTIGILLFALLLVFTLGSFGDSGRGFLEDIQQVEAAYIASALIGGAIFNASNILLSASVSIAGMAVAFPLGVGLALVLGVFINYFSSPKGDPFWLFTGVVLIVIAIICNGIAAGKNQKAGTNNSKKGIILAAIAGILMSFFYRFVAAAMDLNNFESPTTGMATPYTAFFIFAIGIFLSNFLFNTLVMKRPFVGLPVTYKEYFAGKASTHMVGILGGCIWGLGTALSYIAAGKAGAAISYALGQGAPMIAALWGVFIWKEFTGSSKATNRLLGVMFILFILGLTFIVISGGS | failed
MYKLDLPTLMDAFHKVFHVSMLRKCITHQENVISEPPPDLLENMMIVGMLIPNLLGVSSEMVGR | failed
MYKLVLIRHGESTWNKENRFTGWVDVDLTEQGNREARQAGQLLKEAGYTFDIAYTSVLKRAIRTLWHVQDQMDLMYVPVVHSWRLNERHYGALSGLNKAETAAKYGDEQVLVWRRSYDTPPPALEPGDERAPYADPRYAKVPREQLPLTECLKDTVARVLPLWNESIAPAVKAGKQVLIAAHGNSLRALIKYLDGISDADIVGLNIPNGVPLVYELDESLTPIRHYYLGDQEAIAKAQAAVAQQGKSAA | not failed
MYLKARQDELTESTIQSQEYRLEAFEQFCREEGIENLNDLSGRDLYAYRVWRREGNGKGRDEIEPITLRGQLATVRSFLRFAAEVDAVPEDLRTKVPLPTISNAGEVSASTLDPERADVILDYLQMYKYASRVHVIALLLWHTGARMGAIRGLDIDDCELEQDNPGIQFVHRPQTDTPLKNGEKGQRWNAISDHVANVLQDYIDGPREPVFDEHGRRPLVTTPQGRASTSTFRTTMYRVTRPCWRGAECPHDRDPEECEATSNRKASTCPSARSPHDVRSGRVTAYRREDVPRRVVSDRLNASDQILDKHYDRRGEREKSEQRRDYLPEV | failed
MYLKRSDGPSPGTLSLAARLTVLSTLATTGVLLFAIVFQFLALVSDLEFEDNDFIIDKIRVIEAIIVRYPEDRVHLEQEVQWEGSMREDSRYLVRIADARKNIIMETRGMDRIAPPAMFPRPARDTHAIGRGKKLKTPEGRVYLVNAAWTDGGRAPDSRQIQVALDVTEEEEMLEGYKQKMAFVFLAGLFLSAGLNVVVVRRGLRPLVQLTETAGRIDVTTLHERIDARVWPRELARFAAAFDAMLTRLESSFERLESSSANLAHEIRTPLNILRGEAEVTLSRARSPEEYRRVIESSLEEYERLSRLIDNILFLARAEQRIEPVPLDAGHELELLQDYYGTLAEEKGIAISCTGEGTISADPLLFQRAVGNVLSNAIRYTPAGGTITVSIDRADDGAALLTVIDTGIGISADDLPRVFDRFYRSSEARTLNAQGTGLGLAIVRSIMELHRGSVTIDSAPGRGTAVTLRFPLASQ | failed
MYLRRFYDEGLAHASYLVGCQETGEACVIDPARDVEPYLLTAKREGLRIVAALETHIHADFVSGAREMADRAGAAICVSDEGPPEWKSEYVKAYPHRLLKDGDELHFGNVRIVVMHTPGHTPEHVSYLLYDGKTSPDVPMALFSGDFVFVGDVGRPDLLERVAGESGSSEALARQMFRSLRKFEALPDHVQVLPAHGAGSACGKALGAVPSSTVGYEKLVNWALQHKDEDAFVQALLAGQPEAPIYFARMKLVNKVGPRLLAELGAPERVDLPPERVRAWREGGVVLDVRPADAFAKRHLAGSLNIPWNKSFVTWAGWLLPADRPIHLLAADAIAPDVIRALRSIGIDDVVDWTDPAAVDRAAPDDVASYANVSPDEVRGALAQQGLWLLDVRNVDEWAGGHLPQAHHIPLSKLAAHIHDVPRDGSVCVYCRTGGRSAIAASLLRAHGVGDVRNMVGGYEAWRGKGFPVEA | not failed
MYNREGIQGHILSFIDFSKASTFLDIGCGKGNDLIEISNRTCKEAKLYGVDVKANLIEFAKMQTEGDCRFTFNVYDVEDGLKFEDESIDVIISCNVLECIKNKSKLLHEIHRVLKPDGKIIMAHFDWDTQIFNAFDKNLYRKLIHTYSDWQQPWMNDCDAWMGRRISGVFNETGLFSGNIFTYVVTESEYKEGFRGYSLINEEFKALVEKGIIKNTEFELFKDQIIQLEKTGHYFYSVNLYTYVGQKK | failed
MYRDIATKLVAAIQDGIFTVKLPTEAQLMERYQASRNTIRKAIDLVYQQGLLRRVQGSGYYITNIQLQHKTVVNLSARSLFNSHVHPRTLTSKILTFDTIHGDSALSRKLNIPVDEELYRIIRLRYWHDQLYCLEKAYYLRSVVPYLSTEAVNTSIWDFINEAYGIGIANSDDYLSLTNLNKEEAELMNLAQGATHLALDSCNYYKNNGLLDFSHTIFVYPDLALYFHTTNLANN | failed
MYREFYGLTEKPFSKTPDPRYLFLSRGHREALARLQYAVEERELALLTGDIGCGKTTISRALMDAVGNDGCFCFIVNPRLSAVEFLRTVARSLGIAEPAAAKDELLRQLTEAVYRLEGEKRCPVIIIDEAQLIPDQEVFDEIRLLTNFQLDDRNLMSVILMGQPELRQILSEPAHEALRQRIAMHYHLQPLSLEETLEYVDFRVEVAGGPQGLFSPDAIRRIYELSGGVPRKINILATNALLVGFGKDSAWIDASLVEELRDEASLYLEHHHHHH | failed
